What was measured:
Conditions in all cases: remark: other sources report otherwise
[1] = biological target: T1, factor XIIa, P00748; test: SPR (BIAcore X), Ir-CPI immobilised at about 200 RU, factor injected at 5-300 nM; two-state model, kd1 (first step)
T1 chain: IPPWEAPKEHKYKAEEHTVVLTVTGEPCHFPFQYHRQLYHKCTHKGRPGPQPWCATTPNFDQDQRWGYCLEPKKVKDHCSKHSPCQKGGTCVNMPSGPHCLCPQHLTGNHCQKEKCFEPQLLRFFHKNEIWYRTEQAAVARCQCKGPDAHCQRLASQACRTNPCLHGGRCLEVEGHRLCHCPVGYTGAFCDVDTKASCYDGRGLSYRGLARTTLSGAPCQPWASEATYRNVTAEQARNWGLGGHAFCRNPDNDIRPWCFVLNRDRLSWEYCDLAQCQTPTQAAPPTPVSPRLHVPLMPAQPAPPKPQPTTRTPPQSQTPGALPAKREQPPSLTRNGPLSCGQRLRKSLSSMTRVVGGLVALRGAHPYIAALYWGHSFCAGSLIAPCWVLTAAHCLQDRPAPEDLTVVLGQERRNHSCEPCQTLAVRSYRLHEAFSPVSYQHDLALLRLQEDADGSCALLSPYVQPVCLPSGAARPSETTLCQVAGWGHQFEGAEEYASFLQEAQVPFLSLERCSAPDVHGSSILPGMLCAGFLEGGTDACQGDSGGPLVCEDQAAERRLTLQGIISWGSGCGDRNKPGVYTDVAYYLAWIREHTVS

[2] = biological target: T1, factor XIIa, P00748; test: SPR (BIAcore X), Ir-CPI immobilised at about 200 RU, factor injected at 5-300 nM; two-state model, ka1 (first step)
[3] = biological target: T1, factor XIIa, P00748; test: SPR, Ir-CPI immobilised; two-state model, forward rate of the conformation change
[4] = biological target: T1, factor XIIa, P00748; test: SPR, Ir-CPI immobilised; two-state model, backward rate of the conformation change
[5] = biological target: T1, factor XIIa, P00748; test: SPR, Ir-CPI immobilised; two-state model, global equilibrium constant K = ka1ka2/kd1kd2

B1: Ir-CPI, Q9GP15 20-86 (protein)
chain: ANHKGRGRPAKCKLPPDDGPCRARIPSYYFDRKTKTCKEFMYGGCEGNENNFENITTCQEECRAKKV
koff [1]: 0.0946 s⁻¹ | kon [2]: 219000 M⁻¹ s⁻¹ | ka2 [3]: 0.655 s⁻¹ | kd2 [4]: 0.105 s⁻¹ | Ka [5]: 1.68e+08 M⁻¹

From EP2123670B1
